Source: publication PMC9405056, “Functional Characterization of Arylalkylamine N-Acetyltransferase, a Pivotal Gene in Antioxidant Melatonin Biosynthesis from Chlamydomonas reinhardtii” (Antioxidants, 2022)

Substrate: NCCc1c[nH]c2ccc(O)cc12
Assay: HPLC with fluorescence detection of N-acetylserotonin; Lineweaver-Burk plot
Assay type: biochemical, Chlamydomonas reinhardtii
Conditions: acetyl-CoA as co-substrate (0.5 mM in the standard assay), 100 mM potassium phosphate, standard assay pH 8.8, 45 °C, 30 min, serotonin 50 to 2000 μM

B1: CrAANAT (Chlamydomonas reinhardtii) (protein)
chain: MAEESLDASVQPLGSTVFFGPVQPEMLDRIHELEAASYPEDEAATYEKLKFRIENASNVFLVALSAEGDGEPKVVGFVCGTQTRASKLTHESMSTHDADGALLCIHSVVVDAALRRRGLATRMLRAYTAFVAATSPGLTGIRLLTKQNLIPLYEGAGFTLLGPSDVEHGADLWYECAMELEAEEEAEAAEA
notes: full length, 191 residues, codon-optimized synthetic gene; N-terminal GST fusion with C-terminal His6 (GST-CrAANAT-His6, pET60), tags kept
- Km: 247 µM
